T1: Human MAGEB2 (Melanoma-associated antigen B2) (human, UniProt O15479 1-319)
T1 construct: Intracellular antigen detected by IHC in FFPE material: CHO cells transfected with human MAGEB2 (mCherry vector with Myc/DDK tags, or ORF without tags)
T1 sequence: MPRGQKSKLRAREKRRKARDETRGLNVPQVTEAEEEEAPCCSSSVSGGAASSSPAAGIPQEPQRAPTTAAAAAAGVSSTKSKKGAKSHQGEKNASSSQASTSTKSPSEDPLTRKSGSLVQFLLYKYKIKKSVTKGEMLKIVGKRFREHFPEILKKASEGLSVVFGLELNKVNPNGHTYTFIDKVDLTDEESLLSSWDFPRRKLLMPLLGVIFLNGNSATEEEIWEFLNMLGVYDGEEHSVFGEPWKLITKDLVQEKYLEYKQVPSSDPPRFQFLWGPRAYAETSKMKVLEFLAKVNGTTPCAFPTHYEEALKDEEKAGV

T2: human MAGEB4 (human, UniProt O15481 1-346)
T2 construct: whole, on cells
T2 sequence (looked up): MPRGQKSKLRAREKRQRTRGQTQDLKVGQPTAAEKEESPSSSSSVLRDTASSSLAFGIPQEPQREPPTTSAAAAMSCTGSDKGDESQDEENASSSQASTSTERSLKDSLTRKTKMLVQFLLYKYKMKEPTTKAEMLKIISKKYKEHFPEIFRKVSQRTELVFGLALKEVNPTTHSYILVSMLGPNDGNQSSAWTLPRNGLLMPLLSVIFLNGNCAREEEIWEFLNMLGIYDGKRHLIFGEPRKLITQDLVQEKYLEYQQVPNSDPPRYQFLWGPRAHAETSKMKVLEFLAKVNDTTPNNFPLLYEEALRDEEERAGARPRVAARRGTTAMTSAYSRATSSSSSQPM


Key:
[1] = molecular target: T1, Human MAGEB2 (Melanoma-associated …); assay: IHC on FFPE T98G cells (endogenous MAGEB2)
Experimental: (§1) FFPE samples were sectioned at 4 μm and mounted on positive charged glass slides. After mounting, paraffin sections were air-dried at room temperature. FFPE TMA samples were received as freshly sectioned and mounted on glass slides. The fully automated IHC assay was performed on a Discovery Ultra Stainer (Ventana Medical Systems, Tucson, AZ) using Ventana Anti-Rabbit HQ (cat #760-4815), Ventana Anti-HQ HRP (cat #760-4820), and Ventana Antibody Diluent with Casein (cat #760-219) (Ventana Medical Systems, Tucson, AZ). The slides were baked on the Discovery Ultra Stainer at 60° C. for 8 minutes, de-paraffinized with Ventana Discovery wash (cat #950-510) for 3 cycles (8 minutes each) at 69° C., and underwent cell conditioning (target retrieval) at 95° C. for 16 minutes (for cell arrays) or 32 minutes (tissues or TMAs) in CC1 buffer (cat #950-500). Following this, slides were incubated with Background Sniper (cat #BS966M, Biocare Medical, Pacheco, CA) in a Ventana Option Prep kit (cat #771-751) for 28 minutes, incubated with CM inhibitor (a part of the Ventana DAB kit cat #760-159) for 12 minutes, and incubated for 1 h at RT with MAGE-B2 antibody diluted with Ventana diluent with Casein in a Ventana Prep kit (cat #770-001) (working concentration at 0.1 μg/ml for cell pellet, or 1-5 ug/ml for tissues) or with a matched concentration of isotype control Rabbit IgG1 antibody. Following this, slides were incubated with the Ventana Anti-Rabbit HQ (cat #760-4815) for 28 minutes at RT, Ventana Anti-HQ HRP (cat #760-4820) for 28 minutes at RT, and signals detected with Ventana DAB chromogen kit (cat #760-159) for 5 minutes at RT. Slides were counterstained with Ventana Hematoxylin II (cat #5266726001) for 8 minutes and Ventana Bluing reagent (cat #526676900) for 4 minutes. Slides were coverslipped and digitized using an Aperio AT2 scanner (Leica Biosystems Inc, Buffalo Grove, IL).

[2] = molecular target: T1, Human MAGEB2 (Melanoma-associated …); assay: IHC on FFPE NCI-H1395 cells (endogenous MAGEB2)
Experimental: as §1

human MAGEB4 = molecular target: T2, human MAGEB4; assay: IHC, FFPE CHO cells transfected with human MAGEB4
Text: Negative control cells included parental Chinese hamster ovary (CHO) cells, CHO cells stably transfected with mCherry Vector Control (minus Myc/DDK tags), CHO cells stably transfected with mCherry-human DCAF4L2 (plus Myc/DDK tags). The cross-reactivity control cells included CHO cells transfected with mCherry Vector Control (plus Myc/DDK tags) with one of the human MAGE-B or MAGE-A family members (MAGEA1, MAGEA2, MAGEA3, MAGEA4, MAGEA5, MAGEA6, MAGEA8, MAGEA9, MAGEA11, MAGEA12, MAGEB1, MAGEB3, MAGEB4, MAGEB5, MAGEB6, MAGEB10, MAGEB16, MAGEB17, MAGEB18). Positive control cell lines included CHO cells transfected with mCherry Vector (plus Myc/DDK tags) with human MAGE-B2 or CHO cells transfected with mCherry Vector (open reading frame (ORF); minus Myc/DDK tags) with human MAGEB2, and thirteen human cancer cell lines with known endogenous RNA expression level of MAGEB2 (U266B1, T98G, KMM-1, U20S, CFPAC-1, SCaBER, UACC-257, CFPAC-1, VMRC-LCD, NCI-H1703, UM-UC-3, NCI-H1395, NCIH82).
as §1, with “antibody.” for “antibody. Following this, slides were incubated with the Ventana Anti-Rabbit HQ (cat #760-4815) for 28 minutes at RT, Ventana Anti-HQ HRP (cat #760-4820) for 28 minutes at RT, and signals detected with Ventana DAB chromogen kit (cat #760-159) for 5 minutes at RT. Slides were counterstained with Ventana Hematoxylin II (cat #5266726001) for 8 minutes and Ventana Bluing reagent (cat #526676900) for 4 minutes. Slides were coverslipped and digitized using an Aperio AT2 scanner (Leica Biosystems Inc, Buffalo Grove, IL).”

[3] = molecular target: T1, Human MAGEB2 (Melanoma-associated …); assay: IHC on FFPE UM-UC-3 cells (endogenous MAGEB2)
Experimental: as §1

Row | IHC % Frequency [1] | IHC Intensity [1] | IHC % Frequency [2] | IHC Intensity [2] | binding result (human MAGEB4) | IHC Intensity [3] | Binder
1 | 70% | 2 | 0% | 0 | no binding (tested: 0.1 µg/ml) | – | 1C3 (antibody, V domains shown, also called MAGE-B2 (IC3); anti-MAGEB2 antibody 1C3) VH: QSLEESGGGLVQPEGSLTLTCTAFGVTLTNYYICWVRQAPGKGLEWVGCIDNANGRTYYASWAKGRFTISKTSSTTGTLQMTSLTAADTATYFCARSLATPLWGPGTLVTVSS VL: DIVMTQTPSSVEAAVGGTVTIKCQASQNISSYLAWYQQKPGQPPKLLIYRASTLASGVPSRFKGSGSGTQFTLTISDLECADAATYYCQSYDDSRSSNFFYAFGGGTEVVVKG
2 | 70% | 2 | 0% | 0 | no binding (tested: 0.1 µg/ml) | 0 | 4G17 (antibody, IgG1, V domains shown, Rabbit monoclonal IgG1; Tested as supernatant and as small batch purified antibody; also called MAGE-B2 (4G17); anti-MAGEB2 antibody 4G17) VH: QSLEESGGGLVQPEGSLTLTCTASGVTLSNYYICWVRQAPGKGLEWIGCIDNVNGRTYYASWAKGRFTISKTSSTTGTLQMTSLTAADTATYFCARSLATPLWGPGTLVTVSS VL: DIVMTQTPASVEAAVGGTVTIKCQASQNIDSYLAWYQQKPGQPPKLLIYRASTLASGVPSRFKGSGSGTEFTLTISDLECADAATYYCQSYDDSRSSSFFYGFGGGTEVVVK
3 | 70% | 1 | 0% | 0 | no binding (tested: 0.1 µg/ml) | 0 | 1J15 (antibody, IgG1, V domains shown, Rabbit monoclonal IgG1; Tested as supernatant and as small batch purified antibody; also called MAGE-B2 (IJ15); anti-MAGEB2 antibody 1J15) VH: QSLEESGGGLVQPEGSLTLTCTAFGFTLNNYYICWVRQAPGKGLEWIACIDNANGRTYYASWAKGRFTISKTSSTTVTLQMTSLTAADTATYFCARSLSTPLWGPGTLVTVSS VL: DIVMTQTPASVEAAVGGTVTIKCQASQSISSYLSWYQQKPGQPPKLLIYRASTLASGVPSRFRGSGSGTQFTLTISDLECADAATYYCQSYDDSSDNNFFYGFGGGTEVVVR
4 | 70% | 2 | 0% | 0 | no binding (tested: 0.1 µg/ml) | 0 | 1I14 (antibody, V domains shown, also called MAGE-B2 (1i14)) VH: QSVEESGGRLVTPGTPLTLTCTISGFSLSSYAMSWVRQAPGKGLEWIGSIGGGGSAVYASWAKGRFTISKTSTTVDLRITSPTTEDTAMYFCGRGFYSIDLWGPGTLVTVSS VL: DVVMTQTPASVEATVGGTVTIKCQSSQSVYDNNALAWYQQNAGQRPRLLIYGASTLASGVPSRFSASGSGTEFTLTISDLECADAATYYCQCTYYVSSYQNDFGGGTEVVVKG

Source: patent publication US20250282887A1 (Amgen, published 2025)
